Source: PMC9169922
Read-outs that look alike come from different tables or passages of the source.

Legend:
[1] = target: T1, DNA polymerase alpha catalytic domain (PolαCD) (human, UniProt P09884 338-1250); assay: BLI
[2] = target: T1, DNA polymerase alpha catalytic domain …; assay: BLI; remark: listed apart in the source
[3] = target: T1, DNA polymerase alpha catalytic domain …; assay: BLI; remark: listed apart in the source
[4] = target: T1, DNA polymerase alpha catalytic domain …; assay: BLI; remark: listed apart in the source
[5] = target: T1, DNA polymerase alpha catalytic domain …; assay: BLI; remark: listed apart in the source
[6] = target: T1, DNA polymerase alpha catalytic domain …; assay: crystal structure

T1 sequence (P09884 338-1250): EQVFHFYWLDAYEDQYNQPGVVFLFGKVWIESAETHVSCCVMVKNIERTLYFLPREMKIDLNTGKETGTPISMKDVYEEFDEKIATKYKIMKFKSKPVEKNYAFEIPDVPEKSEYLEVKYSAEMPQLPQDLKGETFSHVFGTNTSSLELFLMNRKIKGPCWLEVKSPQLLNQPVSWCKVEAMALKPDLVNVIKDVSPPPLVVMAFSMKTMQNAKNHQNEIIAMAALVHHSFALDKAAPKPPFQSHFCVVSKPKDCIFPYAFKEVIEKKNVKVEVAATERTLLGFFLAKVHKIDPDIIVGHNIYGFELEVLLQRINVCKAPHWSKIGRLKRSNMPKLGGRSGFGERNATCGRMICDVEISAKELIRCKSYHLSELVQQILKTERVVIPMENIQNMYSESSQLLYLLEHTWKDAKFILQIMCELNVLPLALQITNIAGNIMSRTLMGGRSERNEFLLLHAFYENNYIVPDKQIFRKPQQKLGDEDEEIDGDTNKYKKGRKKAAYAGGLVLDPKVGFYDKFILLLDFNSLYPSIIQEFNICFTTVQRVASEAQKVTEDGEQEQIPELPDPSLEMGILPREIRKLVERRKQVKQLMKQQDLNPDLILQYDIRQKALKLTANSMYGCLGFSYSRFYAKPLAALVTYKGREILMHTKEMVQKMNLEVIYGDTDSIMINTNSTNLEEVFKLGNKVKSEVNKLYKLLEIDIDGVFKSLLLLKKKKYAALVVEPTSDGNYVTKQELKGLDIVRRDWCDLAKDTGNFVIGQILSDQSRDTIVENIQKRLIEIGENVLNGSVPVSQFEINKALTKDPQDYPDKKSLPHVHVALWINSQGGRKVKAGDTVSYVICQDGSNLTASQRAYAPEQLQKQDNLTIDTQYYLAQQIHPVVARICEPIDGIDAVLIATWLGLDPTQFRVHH

B1: G-C template:primer (matched) (dsDNA)
DNA 1: AATACATAAGCGCTCCAGGCAAT
DNA 2: GCCTGGAGCGC
modifications: primer 3'-terminal dideoxycytidine
- Kd [1]: 1200 nM
- Kd [2]: 168 ± 17 nM
- Kd [3]: 1400 ± 130 nM
- Kd [4]: 30.2 ± 1.3 nM
- Kd [5]: 40.8 ± 1.6 nM

B2: A-C mismatch template:primer (dsDNA)
DNA 1: AATACATAAACGCTCCAGGCAAT
DNA 2: GCCTGGAGCGC
modifications: primer 3'-terminal dideoxycytidine
- Kd [3]: 987 ± 18 nM
- Kd [5]: 12.6 ± 1.3 nM

B3: C-C mismatch template:primer (dsDNA)
DNA 1: AATACATAACCGCTCCAGGCAAT
DNA 2: GCCTGGAGCGC
modifications: primer 3'-terminal dideoxycytidine
- Kd [3]: 646 ± 11 nM
- Kd [5]: 11.7 ± 0.42 nM

B4: T-C mismatch DNA template:RNA primer (crystal) (DNA:RNA)
DNA: ATAGTCGCTCCAGGC
RNA: GCCUGGAGCGC
modifications: RNA primer with 3'-terminal dideoxycytidine
- binding result [6]: binds

B5: T-C mismatch template:primer (dsDNA)
DNA 1: AATACATAATCGCTCCAGGCAAT
DNA 2: GCCTGGAGCGC
modifications: primer 3'-terminal dideoxycytidine
- Kd [3]: 462 ± 43 nM
- Kd [5]: 14.2 ± 0.13 nM
